Reference: paper PMC2632936 (Journal of molecular biology, 2008)

Legend:
[1] = target: Vps4_(ΔMIT, E233Q) (solution experiments) (S. cerevisiae) (UniProt P52917); assay: AUC
AUC = target: the molecule itself; assay: AUC

Molecule | stoichiometry N [1] | Kd (AUC) [µM] | stoichiometry N (AUC)
Vps4_(ΔMIT, E233Q) (solution experiments) (from UniProt P52917 104-437) (domain or fragment) | 2.19 |  | 
full length Vps4_(E233Q) (S. cerevisiae) (enzyme, UniProt P52917 1-437, looked up) MSTGDFLTKGIELVQKAIDLDTATQYEEAYTAYYNGLDYLMLALKYEKNPKSKDLIRAKFTEYLNRAEQLKKHLESEEANAAKKSPSAGSGSNGGNKKISQEEGEDNGGEDNKKLRGALSSAILSEKPNVKWEDVAGLEGAKEALKEAVILPVKFPHLFKGNRKPTSGILLYGPPGTGKSYLAKAVATEANSTFFSVSSSDLVSKWMGESEKLVKQLFAMARENKPSIIFIDQVDALTGTRGEGESEASRRIKTELLVQMNGVGNDSQGVLVLGATNIPWQLDSAIRRRFERRIYIPLPDLAARTTMFEINVGDTPCVLTKEDYRTLGAMTEGYSGSDIAVVVKDALMQPIRKIQSATHFKDVSTEDDETRKLTPCSPGDDGAIEMSWTDIEADELKEPDLTIKDFLKAIKSTRPTVNEDDLLKQEQFTRDFGQEGN |  | < 5 | 1.97
